Reference: US20040253612A1

Key:
[1] = target: 33 amino acid myc-epitope peptide coded for by RNA124; experiment: immunoprecipitation of in vitro translated peptide, lane 4 (dilution buffer wash)
[2] = target: 33 amino acid myc-epitope peptide coded for by RNA124; experiment: immunoprecipitation of myc-epitope peptide compared with β-globin translation product
[3] = target: c-myc monoclonal antibody 9E10; experiment: immunoprecipitation with 9E10 and protein A-sepharose, acetic acid elution
[4] = target: c-myc monoclonal antibody 9E10; experiment: competitive immunoprecipitation, 35S-labeled fusion, competitor unlabeled synthetic myc peptide

Chain of 33 amino acid myc-epitope peptide coded for by RNA124 (peptide, as listed by the source): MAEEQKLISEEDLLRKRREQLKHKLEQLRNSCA

Row | percent of the total TCA precipitable counts isolated [1] | purification (fold) against β-globin protein [2] | percentage bound to the anti-myc antibody [3] | percent bound in the presence of unlabeled myc peptide [4] | Substance
1 | 83% | > 100 fold | – | – | c-myc monoclonal antibody 9E10
2 | – | – | 35% | 9% | wild type c-myc fusion construct (peptide)
